In the DeepSol protein solubility set:

Experiment: soluble on expression in E. coli; label from the status in PepcDB or PDB records

Row | Sequence | soluble on expression in E. coli
1 | MGSDKIHHHHHHAQTTDPNQLKNEGNDALNAKNYAVAFEKYSEYLKLTNNQDSVTAYNCGVCADNIKKYKEAADYFDIAIKKNYNLANAYIGKSAAYRDMKNNQEYIATLTEGIKAVPGNATIEKLYAIYYLKEGQKFQQAGNIEKAEENYKHATDVTSKKWKTDALYSLGVLFYNNGADVLRKATPLASSNKEKYASEKAKADAAFKKAVDYLGEAVTLSPNRTEIKQMQDQVKAMIK | not soluble
2 | MGSDKIHHHHHHAVSAEEAKELGHKLTEFGAEKAGNADGSIPPYTGGVKDLAIPADFKPGSGHYPDPFKDEKPLVSITKANEAQYAEFLMPGTKALLERLPGFRIDVYKTHRTMAYPDWVLKNTVGCARTAKLVGSVTGDGVEGAFACIPFPIPKNGYEVMWNQNLRYQGVRTDFRFRTILIDESGHKTLMGDNETQFIYQYYDRNGSKLPDNFFRTGFTRFYGPPSEVGMMTLAKYSINDGTDDDTTWIYMPGQRRVRVAPEYKYDTPMAAIGGTLLFDEVGGFQGRMDRFDFKLVGKKEMFVPYNNYRAYNSSDLVGDKYANPDDVRWEKHRVWVVEATLKPGERNIYSHRTYYIDEDTWLIVGYEAYDQSNALYRAGYTLDIVPYDKPRVGQPNAIMYDLTKGNYSVTADQGTPSQHMIPFDDLPNMGNYNTQALLNAGVR | not soluble
3 | MGSDKIHHHHHHCNFDGRPCCWANVPPPDDQLDWQIASGVPVQLQNRGVPQPEGSYLIAYAKSAAPSDEAQFASCSIGCASSDIVVRAKHWQSESVLLQVCLRESFPSNAERNPLINCQEFPYVDGMGTTEVILPKTSLVDIVFVASNFIGDQGDVAILDDIEVSYDRNGSECQN | not soluble
4 | MGSDKIHHHHHHCSCNDLLDEKAYDFVSPEQLGDSESAASQLVTGAYNTVITSFIAPGSYLYLTNMDCDYASGASWAFGNVGAGNPQGFWGIDHMWQGSYTLIHRANLGISKISAMSNLSQESKQDALAQLCFLKAWAYFNLVRNYGPVPIFRKSISEGEAMSQPRASVSDVYAHIIELLEQAEGMYSKDDAGFVVGHASNGAAKALLAKVYVTMASGAMSGVPIVVKGGNPNIFEPQPITHIAKTVAGYESFDPAKYYALARDKAWEVINEYTLFDNYMDVWAIGNRNKGEHIWMAQAISGDKDFGNTICQDYVGIFKEDGTMEGNWYGMRDHWYLLFEEQDKRIVDGVIHRYASDGISNGKVIYNYYPRWYADKVENKEVYDSQGNAFDGTEVYHEGQGWTLAKLTKFTFVTDRKQKNSDFHFPLLRLPDIMLIYAEAVNELNGGPDAEAYNQVNRIRTRAHATPFSGMNQDEFRSAVLEERARELAYEADRRYDLFRWGIYLDVMNAIDMDEHNVTKRRLERNLLYPIPTSEVNSNDKIDSNNPGW | not soluble
5 | MGSDKIHHHHHHDEEPKSTLTDVAYYKTQSQMESNVNYLYRTGAIGSYVDFGSAYIGPFASIQEELTGYFSNSYEGQEIVCRYTRELTRQQNTMQLASKMDKVWDDCYRGINVANGAIKHMPEVPMDQATADRLTAEAKFFRAFNYFYLVKTFGAVPFYTDPYELAENMELPRTETSTIYNQIESDLKDAMNVLPEATFAANGHRITKYVAAMTLTDVYMYQHKYAEAAETVRIVVNSNHKLTTNDDLAMNSAFNKLRSTDDLDEAIYAYEYDNQISPSNWLPTYAFDGDASSNGLFGTYAITQKVHGPNDRYLNIYESNDLRRQPNQFYHWTYTNPKTGKVWNSVGNAACCWYYYDEDALLTTGRGTKDWNVYRYAEALLDAAESIAQSTGVTAEAAGYLAQVKARANMEGKTAAEIASSLQSMGKQAFIEECWTERLRELPLEFKMWDMCVRTGMFPNISETTPGQVTYIPLVGAKNASGATIKESDLLWPLSVNEIQRNPSLTQNEGYSAK | not soluble
6 | MGSDKIHHHHHHENLYFQGMLYHLVMLEPEGEGAMDRIMEAMAILDGLAPELPGLTEFRHGPNRDFEQKSERYPYGFLCTFTDKAALDAYAVHPTHQRAGGMLVASCRNGADGILVVDLEV | soluble
7 | MGSDKIHHHHHHENLYFQGMTQFKLIGFDLDGTLVNSLPDLALSINSALKDVNLPQASENLVMTWIGNGADVLSQRAVDWACKQAEKELTEDEFKYFKRQFGFYYGENLCNISRLYPNVKETLEALKAQGYILAVVTNKPTKHVQPILTAFGIDHLFSEMLGGQSLPEIKPHPAPFYYLCGKFGLYPKQILFVGDSQNDIFAAHSAGCAVVGLTYGYNYNIPIAQSKPDWIFDDFADILKITQ | soluble
8 | MGSDKIHHHHHHENLYFQGMYPDLVHLGGADKYFEEILEIVNKIKLFGDFSNEEVRYLCSYMQCYAAPRDCQLLTEGDPGDYLLLILTGEVNVIKDIPNKGIQTIAKVGAGAIIGEMSMIDGMPRSASCVASLPTDFAVLSRDALYQLLANMPKLGNKVLIRLLQLLTARFRESYDRILPKTLGELI | soluble
9 | MGSDKIHHHHHHESEDPWLVLQKAARAAHELSYKGVFIYQAGDNIKSVQITHTNSGQGEYARMVVLDGAPREVLSQGGDVVIFSSKNEKVIMEKRRAHNLFPAVLPDDMELLKANYQARIGGTERIAGRAGRVVFLDPRDGLRYAYKFWADCEYGLLLKSLMLSEQKQMLEQMAFSQLNMMEEQGMDWFHPSVDHSKHYILEEANAQLVQEASNWTVGALPVGYRKVEQVTRLVPGKSAPVTQVIFTDGLASVSLFIEPLSKGVRPRIGQTSKGATHFYANVSKGHQILVVGEVPAATVAQIGSAVSFK | not soluble
10 | MGSDKIHHHHHHFDLEPSSSVPTDKVYKTADDFNVAVIGCYSKLQGQVSYFTECCEYRSDNLSLSAPTAGTQDRYDIDQFADKASNGILESAWANFNNGVYRCNLVLDKIDAADFDATLKKQYKGEALFVRALTYFNMYRLWGGIPMTDKVVTVAEALKIGRSSEQQVFDFLTGDLNQVINENMLPSSYTGTDTGRATSGAAMALLGKIYLTFHKWTEARNVLSQLIGRYSLMPTPDKVFDVDNKMNDEIIFAVRFNKDVEGEGHGYWFSIINLTDDTNQTKALKECYKDGDKRKDLITYVKVEDKVCVMNKFKDLKSATYNTVGNDQIILRYADVLLMYAEALNEISYSNSQTSDAMVALNAVHTRAGLSPVQITELADQDSFRKAIMLERQQEFPYEGHRWFDLVRMGGAKEAMKAEGHTIQDFQFLYPIPKTELERINNTELLWQNPGY | not soluble
11 | MGSDKIHHHHHHGEDSEGSGTSGISPGGNSVSEEVLKHRSMVEKYAKESDILDYVPILLAIIQVESGGTMEDVMQSSESAGLPPNSLSTEASIKQGCIYFASLVKSSKELGCDQDSIIQAYNYGGGYLNYVAKNGKKHSFTLAESFSKEKSGGQKVDYPNPIAIKENGGWRYNYGNMFYCLLVKQYLTTTQFDDKTVQGIFDEAFKYEGTAYVFGGSSPATGFDCSGLTQWCYAKVGLKLPRVAQDQYDVMTHIDLKDAKPGDLIFFHSTYDAGTYVTHVGIYAGENRMFHAGNPVGWTNLTESYWQQHLIGAGRYN | not soluble
12 | MGSDKIHHHHHHGMDKLSTKNYHTLLEVINDQEMIASPNTQLDSQVIANSSPFGGEVVTNRSKNIDGYTVEWSNLRSRYSFFRNSIDWNEVYPGSYYSSKNFYEYNRQTKQKVASFYNPAITNYYGGIKNELSELDKMENQVAEVAISFDKPYPYEEVRKMLPSNVNLVWLYVYSETVNEAEGPSGTLPYGFQLSMDDQNEIFDPENDKQHFFETLEKSPLFADNQEGQKFIQQNKNKKVEKLPIWGVMLTGQTKNFKALQNEPFVRGASIGVTAPIVPYIQPEK | not soluble
13 | MGSDKIHHHHHHKDYKTFPDKYTLSSVDVGGMTAKEAKKAIKKAIDKYQIKVKLDDAEFEMNAEDLGLEYNEKADMQTLINAANRNKVPDKQVKLFNMKKGDEMQNALVDSYITAMTEAQTDSTSNTDNDTDDTKQADKSDAEIFDIKTVVPYRATITYNADAGQFEGVDGVSGDAPIYDKAATKLSSAVKEMKKKAELESSTGYVEGEKAADSDAVKKALKEADAYLDVTVQRHL | not soluble
14 | MGSDKIHHHHHHLAGERENWFVSIPPRRGSVLDVRGRKIVYDSPEYVAYLDVDFFKRQNGDIKALEKTLQNCGITKSAEEVMEYKFFKLTEGEDKVDVLKKIESELLPFVNIELVYTRKKIQDYATGILLGTVIDGTGKGGIEGFFDDQLQGKRKGFLELRYRGARLSPTLVNYSPPENGKDVWLSLDLDLQRRVYDIISKAVEGNSAEAGHVIVMESKTGRILSMVTTRNWNDLIGGYIEPGSTIKPLVYAIALETHSASPDFTVECEGSIKPVEQLPVIIRDIEKHGLVDFSAGIVKSCNVMSVKVGELITEKTGVEGFYEWLRKVGFGEKTGIEMEGEIAGVLREPKKWSLIDPAEISIGQGIGVTPVQLIASLNIFANDGYWVKPTILKDSPVKKRRVFSKETTDVIRQAMVRVVEEGTGKLAQVKGIAIAGKTGTAQKAVGGEYRNLYHSLFVGFFPAEDPKYTILVHLDSPSGAFYGGEVAAPVFREIVEILTEKEDGRIRIVKGLMPDLRGLPVRDALLVLESLGVKDVEIKGKGWKVSEQTPPPNHPLEGPVILFLSDQK | not soluble
15 | MGSDKIHHHHHHLANTKELGPLRILISRLLKKAGELCFTASDLTISKEQAKLITRGAPRFPYHTPHNMLFWLDESQYVDKCIIQHGKYESASTNLVQQFVKEGQTVLDIGGNIGYYTVMFSKIVGRSGKVITFEPTAHYRSILEKNVQENQINNVLIRPEGLSDKAEKLTISIGSSTATLHAPEGQQIDSYEAIQLARLDDLVEQLDITKLDFIKIDVDGHEPSVLRGAQQTIKKFKPLILLEVSHLHYLEGNVFAWDFYDYLSSLNYYIYDEHEMCRITRRSDFLIRCANFDRSCNILLSPTLLNEH | not soluble
16 | MGSDKIHHHHHHLEEILKLKASDTASLEARGEANKKYGIQDFDTWVKRILSRINCSSVLDVCCGTGNQLTYYIQMPCTTNILGVDISKDSLKIARQRCEYLLSTNKKLTLKCCKMEEMFDDKEIDRQYDLISCFYGLYYAEDVDVIVERMIDHLNHKGVFLIVGPYGKNNASLFEIIQKHCMIPELVIKSSTTFMQEDLILKLVTLPGISVDTETFVNPILYPSPQAVMDYWQASTFYVPQYHSTIQQELEKRFENHDVFVVEKHIMAIIASKL | not soluble
17 | MGSDKIHHHHHHLIQYAQAVMRHEAVAAIVAEIVARYQAIADDFELEASIMAAIEEELDQLPKLTFKNNDYLMAGFKARGEKLNAFLMTAVLNHEGIEATYGEPKSLGIVVTDHPNDAEVSRETYRNLATFRRPIGVLVVPGFYGYTSDDDIATFSRGGSDITGAILANGFHADLYENFTDVDGVAAADPRVVANPQMIREMTYREMRELSYGGFGVFHDEAILPAIAGQVPINLKNTNHPAAPGTMIVPEQHFVPKHAITGIVSSQHFGAIYLHRYLLNKEVGFTLKILQVLAHNGISYEHMPSGIDDLTIILDDRQLTEAKRKTICAEIQAAVHPDVLKWIDDYAIIMVVGEGMAQRTGLIQTILQPLATAGVHVSMINEGASQISLMLGTSRESANRAVKTIYNAFFIPINQRLEVH | not soluble
18 | MGSDKIHHHHHHLISTANITMQFGPEPLFENISAKFGNGNRYGLIGANGCGKSTFMKILSGALAPTSGNVSITPGLKVGTLSQDQFAFEQYTVIDAVIMGDVQLWKVKQERDAIYAKADMTEEDGMRVGDLESEFAEMDGYSAESRAGEILIEAGIEESFHYGPMSQVAPGWKLRVLLAQALFANPDILLLDEPTNNLDIHTISWLETELNKRKCTMIIISHDRHFLNAVCTHMADIDYGELRIYPGNYEYFLAQSSLLREQLLAGNAKKSAEIEELQDFVNRFGANASKAKQASSRAKRMDKIKLDEVKSSSRITPSIRFAAGKKMHRQALVLENLGHGFDGELLFQGGDLILEAGAKLAIIGENGVGKTTLLRCLVNELIHNEGTIKWSENASIGYCPQDSTSDFDNDLTIMEWMDQWRQPKHNDLMVRAMLGRLLFTEDDANKKAKNCSGGEKNRLIFGKLMMQDINVIIMDEPTNHMDMEAIEALNNALKDFEGTLIFVSHDREFVSSLATRIIDIKDKKLINFQGTFDEYLSSQADIMARQHA | not soluble
